Measurements as given in patent US7041458B2, “Methods and reagents for determining protein S” (priority 1996, dated 2006).
Read-outs that look alike come from different tables or passages of the source. Bridges are numbered along the chain shown (N, C = ends). Where no end group is shown, it is not given here.

Key:
[1] = target: T1, protein S-C4BP interaction (Homo sapiens, UniProt P20851); assay: Peptide inhibition of the protein S-C4BP interaction by surface plasmon resonance (BIAcore, immobilized C4BP); format: binding; conditions: for effect on binding of human protein S to C4BP (SPR response): 50 nM protein S, peptide up to 100 μM (2000-fold excess); for inhibition of the protein S-C4BP interaction (summary of the above tests): up to 2000-fold excess over protein S; for IC50: 50 nM human protein S, immobilized C4BP, read-out: half maximum inhibition, peptide concentration
T1 construct: C4BPβ was first isolated from human plasma in the form of the protein S-C4BP complex; from tissue; host or cells: human plasma
T1 sequence (P20851 18-252): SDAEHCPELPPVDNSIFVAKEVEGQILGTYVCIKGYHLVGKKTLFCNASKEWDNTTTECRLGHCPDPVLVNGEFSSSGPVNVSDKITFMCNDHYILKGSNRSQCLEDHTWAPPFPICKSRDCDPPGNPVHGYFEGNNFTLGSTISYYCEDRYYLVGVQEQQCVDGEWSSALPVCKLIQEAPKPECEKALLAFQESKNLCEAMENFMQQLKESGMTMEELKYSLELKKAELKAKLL
T1 sequence (P04003 49-597 partner): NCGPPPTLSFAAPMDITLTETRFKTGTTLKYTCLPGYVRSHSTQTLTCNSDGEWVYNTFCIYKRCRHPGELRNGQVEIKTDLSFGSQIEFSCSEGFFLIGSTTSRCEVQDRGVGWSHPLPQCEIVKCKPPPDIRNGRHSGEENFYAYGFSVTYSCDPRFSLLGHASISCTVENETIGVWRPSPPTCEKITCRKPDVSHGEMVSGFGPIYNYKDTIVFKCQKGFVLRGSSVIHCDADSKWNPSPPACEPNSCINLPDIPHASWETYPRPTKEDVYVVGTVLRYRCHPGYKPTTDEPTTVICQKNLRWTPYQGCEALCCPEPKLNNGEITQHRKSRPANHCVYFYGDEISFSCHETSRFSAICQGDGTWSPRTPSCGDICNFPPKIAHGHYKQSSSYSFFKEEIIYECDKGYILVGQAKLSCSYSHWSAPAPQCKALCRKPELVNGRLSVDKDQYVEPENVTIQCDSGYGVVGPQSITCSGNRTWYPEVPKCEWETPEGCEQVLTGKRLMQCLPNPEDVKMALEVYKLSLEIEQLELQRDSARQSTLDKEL
Description: E. Peptide Inhibition of the Protein S-C4BP Interaction According to Surface Plasmon Resonance Studies.
The surface plasmon resonance studies were performed using a BIAcore™ apparatus from Pharmacia Biosensor AB. Immobilization of C4BP to the dextran coated gold surface of a sensorchip was performed at a flow rate of 5 μl/min, using HC as flow buffer. Equal volumes of 0.1 M NHS and 0.1 M EDC were first mixed, whereafter 30 μl of the mixture was flown over the sensorchip surface to activate the carboxymethylated dextran. C4BP was then injected over the sensorchip (40 μl of a 60 μg/ml solution in 10 mM NaOAc at pH 4.75), whereafter unreacted NHS-ester groups were blocked by 15 μl 1M ethanolamine (pH 8.5). The system was regenerated by addition of 15 μl 0.1 M HCl, which removes all non-covalently bound molecules. The immobilized amount of C4BP was 8000 RU. Protein S association was monitored with 50 nM human protein S in HC buffer in a continuous flow of 1 μl per minute during 45 minutes. The ability of each peptide to inhibit the protein S binding was studied by following the association to C4BP for mixtures of protein S and peptide. In BIAcore™, the total amount of bound material is measured, and the peptides are 25-fold smaller than protein S, inhibition of protein S-binding by peptide binding will drastically lower the observed response during the association phase. The percent protein S bound, X, was calculated as X=(S−0.04Smax)/0.96Smax where S is the measured response and Smax is the response obtained in the absence of peptide.
As disclosed in Section E, the ability of the synthetic peptides to inhibit the binding of human protein S to C4BP was also studied using surface plasmon resonance on a BIA-core™ system.
(§1) In these figures, peptide inhibition of the protein S-C4BP interaction is shown as the amount of protein S bound (relative to the amount bound in the absence of peptide) versus concentration of the nine peptides listed in Table 1: (o) SL1, (♦) SL2, (□) SL3, (+) SL4, (⋄) SL5, (●) SL6, (▾) SL7, (Δ) BD4 & (∇) BD6. In FIG. 5A, the result from an equilibrium binding assay using immobilized C4BP in microtiter wells and radiolabelled human protein S is shown. […] In FIG. 5B, the result from surface plasmon resonance assay on a BIAcore™ sensorchip is shown. The amount of protein S bound, X, was calculated from the observed signal intensity, S, compared to the maximum signal intensity in the absence of peptide Smax, as X=(S−0.04)/0.96 Smax.

C4BP [2] = target: T2, C4BP (Homo sapiens, UniProt P20851); assay: Fluorescence polarization titration of peptides with C4BP (results not shown); format: binding; conditions: read-out: dissociation constant KD of the peptide-C4BP complex
T2 sequence (P20851 18-252): T1 sequence (P20851 18-252)
T2 sequence (P04003 49-597 partner): T1 sequence (P04003 49-597 partner)
Excerpt: The difference in KD observed for the peptide and protein might in part be due to post translational modification of the protein.

[3] = target: T1, protein S-C4BP interaction; assay: Peptide inhibition of the protein S-C4BP interaction in microtiter plates (equilibrium binding assay, 125I-labelled protein S tracer, immobilized C4BP); conditions: displacement of 125I-labelled protein S from immobilized C4BP, EDTA buffer; read-out: half-maximum inhibition
Description: D. Peptide Inhibition of the Protein S-C4BP Interaction in Microtiter Plates.
(§2) Microtiter plates were coated with C4BP, 50 μl/well, 10 μg/ml in 0.075 M sodium carbonate buffer, pH 9.6. The plates were incubated over night at 4° C. and then washed with TBS, pH 7.5, containing 0.1% Tween 20. […] The wells were then washed and the amount of bound protein S detected using a γ-counter.
As disclosed in Section D, the synthetic peptides were tested for their ability to displace binding of a ^125I-labelled protein S tracer to immobilized C4BP (FIG. 5A).
as §1

C4BP [4] = target: T2, C4BP; conditions: Ca2+-free; read-out: dissociation constant KD of the complex with C4BP; cited from earlier work
[5] = target: T3, C4b-binding protein (C4BP), species containing the protein S binding β-chain, purified from human plasma (human, UniProt P04003 49-597; P20851 18-252); assay: SPR (BIAcore) competition: 50 nM human protein S mixed with peptide, flowed over immobilised C4BP (8000 RU), HC buffer; percent protein S bound calculated from the response
T3 construct: mature; Isolated from human plasma as the protein S-C4BP complex, dissociated in 3 M guanidine-HCl and purified further; predominantly C4BPβ, and a minor proportion lacking the β-chain may be present; Immobilised on microtiter wells or on a CM5 sensorchip; also called C4BPβ
T3 sequence (looked up) 1: T1 sequence (P04003 49-597 partner)
T3 sequence (looked up) 2: T1 sequence (P20851 18-252)
Description: The surface plasmon resonance studies were performed using a BIAcore™ apparatus from Pharmacia Biosensor AB. Immobilization of C4BP to the dextran coated gold surface of a sensorchip was performed at a flow rate of 5 μl/min, using HC as flow buffer. Equal volumes of 0.1 M NHS and 0.1 M EDC were first mixed, whereafter 30 μl of the mixture was flown over the sensorchip surface to activate the carboxymethylated dextran. C4BP was then injected over the sensorchip (40 μl of a 60 μg/ml solution in 10 mM NaOAc at pH 4.75), whereafter unreacted NHS-ester groups were blocked by 15 μl 1M ethanolamine (pH 8.5). […] Protein S association was monitored with 50 nM human protein S in HC buffer in a continuous flow of 1 μl per minute during 45 minutes. […] The percent protein S bound, X, was calculated as $$X=(S-0.04Smax)/0.96Smax$$
In these figures, peptide inhibition of the protein S-C4BP interaction is shown as the amount of protein S bound (relative to the amount bound in the absence of peptide) versus concentration of the nine peptides listed in Table 1: (o) SL1, (♦) SL2, (□) SL3, (+) SL4, (◊) SL5, (●) SL6, (▼) SL7, (Δ) BD4 & (▽) BD6. […] The amount of protein S bound, X, was calculated from the observed signal intensity, S, compared to the maximum signal intensity in the absence of peptide $Smax$, as $X=(S-0.04)/0.96\ Smax$.

[6] = target: T3, C4b-binding protein (C4BP), species …; assay: competition, equilibrium binding in microtiter wells: peptide against a trace of 125I-labelled human protein S on immobilised C4BP, TBS with 10 mM EDTA, 4 °C overnight, gamma counting
Description: as §2
as §1, with “(◊)” for “(⋄)”, “(▼)” for “(▾)”, “(▽)” for “(∇)”, “$Smax$,” for “Smax,”, “$X=(S-0.04)/0.96\ Smax$.” for “X=(S−0.04)/0.96 Smax.”

[7] = target: T3, C4b-binding protein (C4BP), species …; assay: unlabelled protein S competing with 125I-protein S tracer for immobilised C4BP in microtiter wells, EDTA buffer
Description: as §2
as §1, with “(◊)” for “(⋄)”, “(▼)” for “(▾)”, “(▽)” for “(∇)”, “$Smax$,” for “Smax,”, “$X=(S-0.04)/0.96\ Smax$.” for “X=(S−0.04)/0.96 Smax.”

Q: With “LDGCIRSWNLMKQGASGIKEIIQEKQNKHCLVT (disulfide 4-30 (inferred)) [BD4, reference compound]” as the molecule, how does the “effect on binding of human protein S to C4BP (SPR response)” value (shortened to “effect on binding of human protein S”) [1] read?
A: the same response was observed as with protein S alone

Q: And the “inhibition of the protein S-C4BP interaction (summary of the above tests)” value [1]?
A: gave no inhibitory effect

Q: What about the “inhibition of the protein S-C4BP interaction (summary of the above tests)” value ([1]; listed as 405–437) of the same molecule?
A: did not show any inhibitory effect

Q: Which Kd (C4BP [2]) does the source give for SGIAQFHIDYNNVSSAEGWHVN [SL6] here?
A: ≤ 1000 nM

Q: What about the IC50 [3] of the same molecule?
A: 100 to 200 µM

Q: And the IC50 [1]?
A: 30 to 120 µM

Q: Which results are given for “LVTVEKGSYYPGSGIAQFHIDYNNVSSAEGWHVN [SL7]”?
A: Kd (C4BP [2]): ≤ 1000 nM; IC50 [3]: 100 to 200 µM; IC50 [1]: 30 to 120 µM

Q: Which results are given for EKGSYYPGSGIAQFHIDYNNVS [SL2]?
A: Kd (C4BP [2]): ≤ 1000 nM; IC50 [3]: 100 to 200 µM; IC50 [1]: 30 to 120 µM

Q: Which “effect on binding of human protein S” value [1] does the source give for SDQQSHLEFRVNNLEKSTPLK [SL3] here?
A: the same response was observed as with protein S alone

Q: With LVTVEKGSYYPGSGIAQ [SL5] as the molecule, how does the “effect on binding of human protein S” value [1] read?
A: the same response was observed as with protein S alone

Q: Which “effect on binding of human protein S” value [1] does the source give for DKAMKAKVATYLGGLPDVPFSAT [SL4] here?
A: the same response was observed as with protein S alone

Q: Which Kd (C4BP [4]) does the source give for “plasma purified human protein S: plasma purified human protein S, unlabelled competitor of radiolabelled protein S” here?
A: 6.5 nM

Q: For KPENGLLETKVYFAGFPRK [SL1], which “effect on binding of human protein S” value [1] is on record?
A: the same response was observed as with protein S alone

Q: Which results are given for “YNGCMEVNINGVQLDLDEAISKHNDIRAHSCPSV (disulfide 4-31 (inferred)) [BD6, reference compound]”?
A: effect on binding of human protein S to C4BP (SPR response) [1]: the same response was observed as with protein S alone; inhibition of the protein S-C4BP interaction (summary of the above tests) [1]: gave no inhibitory effect; inhibition of the protein S-C4BP interaction (summary of the above tests) ([1]; listed as 595–628): did not show any inhibitory effect

Q: For SGIAQFHIDYNNVSSAEGWHVN [SL6 synthetic peptide (protein S residues 447-468)], which “IC50 (read off the curve)” value [5] is on record?
A: ~30 µM

Q: What does the source list for EKGSYYPGSGIAQFHIDYNNVS [SL2 synthetic peptide (protein S residues 439-460)]?
A: IC50 (read off the curve) [6]: ~200 µM; IC50 (read off the curve) [5]: ~40 µM

B1: plasma purified human protein S (other, UniProt P07225 42-676, looked up)
chain: ANSLLEETKQGNLERECIEELCNKEEAREVFENDPETDYFYPKYLVCLRSFQTGLFTAARQSTNAYPDLRSCVNAIPDQCSPLPCNEDGYMSCKDGKASFTCTCKPGWQGEKCEFDINECKDPSNINGGCSQICDNTPGSYHCSCKNGFVMLSNKKDCKDVDECSLKPSICGTAVCKNIPGDFECECPEGYRYNLKSKSCEDIDECSENMCAQLCVNYPGGYTCYCDGKKGFKLAQDQKSCEVVSVCLPLNLDTKYELLYLAEQFAGVVLYLKFRLPEISRFSAEFDFRTYDSEGVILYAESIDHSAWLLIALRGGKIEVQLKNEHTSKITTGGDVINNGLWNMVSVEELEHSISIKIAKEAVMDINKPGPLFKPENGLLETKVYFAGFPRKVESELIKPINPRLDGCIRSWNLMKQGASGIKEIIQEKQNKHCLVTVEKGSYYPGSGIAQFHIDYNNVSSAEGWHVNVTLNIRPSTGTGVMLALVSGNNTVPFAVSLVDSTSEKSQDILLSVENTVIYRIQALSLCSDQQSHLEFRVNRNNLELSTPLKIETISHEDLQRQLAVLDKAMKAKVATYLGGLPDVPFSATPVNAFYNGCMEVNINGVQLDLDEAISKHNDIRAHSCPSVWKKTKNS
modifications: 125I-labelled where used as tracer in the microtiter equilibrium assay
notes: mature; also called PS; free protein S
Q: For B1, which IC50 [7] is on record?
A: ~2000 nM

Q: For LVTVEKGSYYPGSGIAQFHIDYNNVSSAEGWHVN [SL7 synthetic peptide (protein S residues 435-468)], which “IC50 (read off the curve)” value [6] is on record?
A: ~90 µM
